{
  "source": "patent WO2014167826A1",
  "about": "(dated 2014)",
  "key": {"[1]": {"molecular_target": "T1, p3-40", "T1 construct": "also called Aβ17-40; 17-40", "T1 peptide": "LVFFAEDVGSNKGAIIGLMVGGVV", "test": "sandwich ELISA, 1A10 capture, HRP-2G2 detection"}, "[2]": {"molecular_target": "T2, p3-42", "T2 construct": "also called Aβ17-42; 17-42", "T2 peptide": "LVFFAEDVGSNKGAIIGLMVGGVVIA", "test": "sandwich ELISA, 44A3 capture, HRP-2G2 detection"}},
  "data": [
    {"binder": "2G2 antibody (antibody, V domains shown, Used unlabelled in the Western blot and conjugated to horseradish peroxidase (HRP) as detection antibody in the sandwich ELISAs; only the CDRs are; also called clone 2G2; 2G2 monoclonal antibody) VH: QVQLQQPGSELVRPGASVKLSCEASGYTFTSYWIHWVKQRPGQGLEWIGNIYPGSGDTNYDERFKSKATLTVDTSSNTAYMQLISLTSDDSAVYYCTRGKNWGQGTTLTVSS VL: DIQMNQSPSSLSASLGDTITITCHASQNINVWLSWYQQKPGNIPRLLIYKVSNLHTGVPSRFSGSGSGTGFTLTISSLQPEDIATYYCQQGQSYPLTFGGGTKLEIR", "values": [
      {"measurement": "binding result", "setting": "[1]", "value": "binds"},
      {"measurement": "binding result", "setting": "[2]", "value": "binds"}
    ]}
  ]
}
